Read-outs that look alike come from different tables or passages of the source. Blank lines part the entries; values can stand above or below the molecule they belong to.
Key:
[1] = target: HA-tagged TBX5 (murine Tbx5 isoform A) (mouse) (UniProt P70326); test: co-IP; nuclear extracts of separately transfected HEK293 cells mixed (100 ug each), anti-HA on Protein A/G Dynabeads, 2 h, alone or with DMSO; blot with anti-Flag, re-blot with anti-HA
[2] = target: HA-tagged TBX5 (murine Tbx5 isoform A) (mouse) (UniProt P70326); test: as above; remark: listed apart in the source
[3] = target: T1, HA-tagged TBX5 (murine Tbx5 isoform A) (mouse, UniProt P70326 1-518); test: cell-based or functional assay
T1 sequence (looked up): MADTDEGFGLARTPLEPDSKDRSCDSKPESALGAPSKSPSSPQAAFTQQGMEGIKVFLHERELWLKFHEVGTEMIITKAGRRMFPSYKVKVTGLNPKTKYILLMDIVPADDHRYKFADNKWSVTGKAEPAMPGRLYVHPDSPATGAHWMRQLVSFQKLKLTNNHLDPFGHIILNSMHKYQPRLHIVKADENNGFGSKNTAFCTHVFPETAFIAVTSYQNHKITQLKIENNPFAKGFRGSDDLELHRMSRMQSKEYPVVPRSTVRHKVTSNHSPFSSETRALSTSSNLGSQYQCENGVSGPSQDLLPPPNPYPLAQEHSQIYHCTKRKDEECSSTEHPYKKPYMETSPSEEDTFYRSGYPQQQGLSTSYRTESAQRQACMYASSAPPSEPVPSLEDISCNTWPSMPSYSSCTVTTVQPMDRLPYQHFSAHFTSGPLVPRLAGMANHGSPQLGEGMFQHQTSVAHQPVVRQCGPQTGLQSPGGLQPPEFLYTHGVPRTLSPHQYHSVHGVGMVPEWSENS

- percent inhibition of the co-precipitation against wild-type HAND2 [1]: < 90%
- percent inhibition of the co-precipitation against wild-type HAND2 [2]: < 80%
Molecule: Flag-tagged HAND2 p.G202V variant (from UniProt Q61039 1-217) (natural protein)

- synergistic activation of the rat NPPA promoter coupled to luciferase in HEK293 cells co-transfected with TBX5 and HAND2 [3]: ≤ 22 fold
B1: Flag-tagged HAND2 wild type (natural protein, mouse, UniProt Q61039 1-217, looked up)
chain: MSLVGGFPHHPVVHHEGYPFAAAAAAAAAAAASRCSHEENPYFHGWLIGHPEMSPPDYSMALSYSPEYASGAAGLDHSHYGGVPPGAGPPGLGGPRPVKRRGTANRKERRRTQSINSAFAELRECIPNVPADTKLSKIKTLRLATSYIAYLMDLLAKDDQNGEAEAFKAEIKKTDVKEEKRKKELNEILKSTVSSNDKKTKGRTGWPQHVWALELKQ

From publication PMC5431093, “A HAND to TBX5 Explains the Link Between Thalidomide and Cardiac Diseases” (Scientific Reports, 2017)
